According to the supplement of paper PMC10567573:

B1: TPPP (parent)
chain: LCKDCQVIDGRNVTVTDVDIVFSK
B2: CSNK1G1 (parent)
chain: GSLPWQGLKADTLKERYQKIGDTK

Variants of: B1
Assay: protein stability index of a GFP-peptide fusion (GPS, HEK-293T) (PSI 1-6); higher = more stable
Conditions: c terminus: a fixed tail appended
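Note: lentivirally expressed fusions sorted by FACS into six bins by GFP to DsRed ratio, PSI derived from sequencing read proportions per bin multiplied by bin number.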

Protein stability index: each site, then its substitutions
K3: Q 2.18; C 1.89; L 1.92; Y 1.91; T 2.83; A 2.51; P 3.26; E 3.21; M 1.78; H 2.52; S 2.17; I 1.05; D 3.3; G 3.34; R 2.15; W 1.49; F 1.65; N 2.95
C2: N 3.59; F 2.48; H 3.42; Y 2.75; R 2.79; T 3.61; L 3.09; K 3.07; G 3.37; V 3.04; A 3.56; P 4.04; W 2.56; Q 4.18; E 4.36; S 3.54; M 3.24; D 4.08; I 2.93
L1: Q 3.08; T 2.73; A 2.54; Y 2.08; D 4.05; K 3.47; E 3.41; F 2.25; R 1.57; N 3.32; S 2.91; P 2.85; W 1.89; C 1.85; V 2.71; I 2.01; M 2.26; H 2.7
D4: A 1.76

Variants of: B2
Assay: as above
Conditions: c terminus: a fixed tail appended

Protein stability index of substitutions, site by site:
A10: M 3.7; S 4.2; R 4.06; K 4.28; V 4.19; Y 3.63; Q 4; T 4.48; P 4.39; L 3.32; W 3.56; N 4.62
Y17: F 4.19; N 4.98; C 4.27; P 4.88; M 4.23; E 5.71; A 4.98; L 4.19; H 5.05; T 4.83; W 3.82; Q 4.81; S 4.45; K 4.72; I 4.21; D 4.99; R 4.13; G 5.36; V 4.04
D22: A 3.06; E 3.91; F 3; I 3.41; H 3.75; C 3.81; N 3.2; L 3.32; S 4.05; G 3.74; V 3.65; T 3.52; Y 2.98; W 2.64; R 3.43; Q 3.82; M 3; K 3.56; P 3.7
T23: P 3.91; N 3.92; A 4.46; L 3.82; E 4.68; R 3.84; I 3.81; M 3.97; D 4.55; V 4.01; S 4.53; C 3.4; W 2.78; F 3.38; Q 3.96; H 4.08; G 4.34; K 4.74; Y 3.36
L13: F 4.2; I 4.48; K 4.15; T 4.65; Y 3.72; M 3.46; V 3.7; Q 4.47; P 4.06; G 4.12; N 4.81; H 4.64; C 3.71; R 4.27; A 3.96; E 4.66; S 4.62; W 3.05; D 4.49
K14: D 4.02; F 3.13; V 4.14; M 3.36; I 3.75; G 3.08; H 4.37; Q 3.52; E 4.23; A 4.55; P 4.41; L 3.1; T 4.09; S 3.88; C 3.81; N 4.58; R 3.8; Y 3.37; W 2.74
D11: S 4.11; V 2.8; M 3.32; R 3.57; C 3.63; P 4.11; K 3.93; G 3.8; N 3.37; H 3.69; Q 3.56; I 3.73; L 3.76; E 4.13; F 2.89; A 3.64; W 2.9; Y 3.44; T 3.61
T12: V 4.2; G 3.83; Y 3.51; S 4.58; W 3.27; H 3.71; K 4.28; Q 4.19; I 3.42; D 4.68; P 4.86; E 4.85; N 4.07; A 3.99; F 2.86; C 4.06; R 4.33; L 3.37; M 3.94
R16: K 4.23; A 4.29; S 4.71; H 4.35; G 4.89; E 4.69; Y 4.01; L 4.11; V 4.25; Q 4.44; C 4.29; T 4.07; P 4.37; F 3.98; M 4.11; I 3.26; N 4.68; D 4.54; W 2.99
E15: D 4.25; R 3.98; M 3.51; G 4.07; L 3.66; W 2.77; N 3.39; T 3.93; H 3.43; I 3.26; P 3.97; F 3.56; C 3.37; Y 3.1; K 3.29; A 3.74; Q 4.09; S 3.47; V 3.31
K19: E 4.45; C 3.56; R 3.75; W 2.83; Y 3.86; F 3.05; M 3.68; A 3.94; N 4.35; L 3.74; Q 4.8; T 4.3; G 4.17; S 3.95; H 4.24; P 3.95; I 3.54; V 3.83; D 4.67
K24: N 3.91; I 3.53; S 3.79; Q 4.07; P 4.2; T 4.08; V 3.39; M 3.19; D 3.25; A 4.01; H 3.6; G 3.79; W 2.95; L 3.3; E 4.88; F 3; Y 2.63; C 3.4; R 3.72
G21: T 3.83; P 4.62; I 3.41; H 4.15; A 3.59; W 3.01; S 4.3; V 3.64; D 4.57; Y 3.74; E 4.37; M 3.87; L 4; F 3.42; R 4.16; C 3.29; Q 4.44; N 3.86; K 4.71
Q18: V 3.64; H 4.09; T 4.26; W 3.34; K 3.62; F 2.91; D 4.47; N 4.11; S 4.35; I 3.57; A 4.46; M 3.64; Y 3.74; L 3.91; G 4.09; C 3.76; P 4.66; E 4.54; R 3.96
I20: L 3.86; T 4.46; G 5; S 4.65; H 4.47; Y 4.29; E 5.24; A 4.67; N 4.62; F 4.26; V 4.3; W 3.62; K 4.33; C 4.35; P 4.75; D 4.86; R 4.2; Q 4.36; M 4.53
